Target: T1, LEM domain containing protein 3 (LEMD3), endogenous (human, UniProt Q9Y2U8 2-911)
T1 construct: also called endogenous LEMD3; native LEMD3
T1 sequence: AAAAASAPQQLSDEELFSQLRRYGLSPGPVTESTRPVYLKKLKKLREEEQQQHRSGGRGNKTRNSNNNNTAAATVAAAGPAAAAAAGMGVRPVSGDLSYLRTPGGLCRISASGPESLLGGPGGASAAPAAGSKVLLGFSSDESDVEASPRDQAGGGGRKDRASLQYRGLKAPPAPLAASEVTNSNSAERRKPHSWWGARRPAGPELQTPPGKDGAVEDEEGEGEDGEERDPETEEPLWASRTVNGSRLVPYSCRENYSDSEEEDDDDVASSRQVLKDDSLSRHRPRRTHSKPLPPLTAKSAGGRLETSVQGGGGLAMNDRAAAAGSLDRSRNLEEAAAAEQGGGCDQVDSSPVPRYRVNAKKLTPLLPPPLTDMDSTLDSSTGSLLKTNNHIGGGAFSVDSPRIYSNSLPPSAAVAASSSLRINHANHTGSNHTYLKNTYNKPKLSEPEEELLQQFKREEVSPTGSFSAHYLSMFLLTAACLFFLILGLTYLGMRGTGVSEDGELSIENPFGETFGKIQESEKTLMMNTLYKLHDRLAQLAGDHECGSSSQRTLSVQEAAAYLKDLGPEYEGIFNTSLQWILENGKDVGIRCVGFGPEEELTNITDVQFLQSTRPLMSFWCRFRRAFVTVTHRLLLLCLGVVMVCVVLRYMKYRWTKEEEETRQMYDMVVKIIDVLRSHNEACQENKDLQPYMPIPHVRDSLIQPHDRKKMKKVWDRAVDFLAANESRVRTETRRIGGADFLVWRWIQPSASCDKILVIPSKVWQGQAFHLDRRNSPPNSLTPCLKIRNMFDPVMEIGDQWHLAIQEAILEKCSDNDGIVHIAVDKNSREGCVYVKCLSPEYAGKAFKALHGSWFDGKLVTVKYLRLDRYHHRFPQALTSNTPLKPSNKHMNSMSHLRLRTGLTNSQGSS
Assay: LEMD3-PPM1α PLA in HFFs on glass; significant in cytoplasm and nucleus
Method: In vitro PLA: Protein-protein PLA was per-formed with antibody pairs listed in Table 4 as described in (42) with the following modifications: cells were plated on FN-coated glass or hydrogels (Matrigen, Brea, Calif.). All primary antibody in-cubations were performed for 16-24 hours at 4 C and cells were counter-stained with 1:40 phalloidin-488 or phalloidin-546 in 1×PBS for 30 minutes at room tempera-ture and/or further processed for IF imaging using the procedure recommended in Sigma's PLA Resource Center. For all recombinant LEMD3 and C-terminal fragment experiments, HFFs were electroporated as above and allowed to culture for 24 hours on 10 µg/mL fibronectin coated glass or hydrogels before fixation. For LEMD3-phospho-Smad2/3, LEMD3-Smad2/3+TGFβ and for Smad2/3-Smad4 PLA assays: cells were treated 90 minutes before fixation with 50 µg/mL for LEMD3- and CTF-Smad2/3 assays, 100 µg/mL TGFβ for LEMD3-phospho-Smad2/3 experiments and 500 µg/mL TGFβ for Smad2/3-Smad4 experiments. […] Imaging and analysis were performed as described for high-resolution ex vivo PLA signals except that no tissue autofluorescence signal was measured or needed to be subtracted and, when appro-priate, other IF signal (e.g. FLAG) were measured in parallel. […] Instead the PLA signal was quantified as the PLA volume divided by the nuclear intensity for each image.

binding result: binds
B1: Protein Phosphatase, Mg2+/Mn2+ Dependent 1α (PPM1α) (enzyme, human, UniProt P35813 2-382, looked up)
chain: GAFLDKPKMEKHNAQGQGNGLRYGLSSMQGWRVEMEDAHTAVIGLPSGLESWSFFAVYDGHAGSQVAKYCCEHLLDHITNNQDFKGSAGAPSVENVKNGIRTGFLEIDEHMRVMSEKKHGADRSGSTAVGVLISPQHTYFINCGDSRGLLCRNRKVHFFTQDHKPSNPLEKERIQNAGGSVMIQRVNGSLAVSRALGDFDYKCVHGKGPTEQLVSPEPEVHDIERSEEDDQFIILACDGIWDVMGNEELCDFVRSRLEVTDDLEKVCNEVVDTCLYKGSRDNMSVILICFPNAPKVSPEAVKKEAELDKYLECRVEEIIKKQGEGVPDLVHVMRTLASENIPSLPPGGELASKRNVIEAVYNRLNPYKNDDTDSTSTDDMW
notes: whole, on cells; Endogenous protein inside fixed HFFs, detected by PLA with antibody 7F12; also called PPM1a

From patent US11541101 (UNIVERSITY OF VIRGINIA PATENT FOUNDATION, dated 2023)
